These results are taken from patent US12077763B2, “RNA-based control of powdery mildew” (Greenlight Biosciences, Inc., priority 2021, dated 2024).

For the data set, the system named is E. necator. Put plainly: Leaf disc assay, dry inoculum (settling tower), decrease in disease severity / hyphal growth (Example 2). The settings on record: decrease in disease severity (hyphal growth) relative to untreated control, value ± SE; for % decrease =/− SE TP1: time point 1 (untreated control hyphal growth ≥50%); for % decrease =/− SE TP2: time point 2.

B1: ES53: dsRNA trigger SEQ ID NO 114; gene target Hypotethicai effector (nucleic acid)
DNA: ACGATTATCGCCAATTGGGGTGATACTGTTGTAGTACATGTTACTAATTCATTAATGAATAATGGAACGAGCATTCATTTTCATGGACTCCGGCAATTCGAAACAAACCAAATGGATGGTCCAACATCAATAACACAGTGTCCCATAGCTCCCGGTGATAGTTTTACATATAGATGGGTTGCCTCTCAGTACGGAAGTTCATGGTACCATGCTCATTTCGCCGTAC
In the case of B1, the “% decrease =/− SE TP1” value worked out at 4 ± 1%.

B2: GS3324 (nucleic acid)
sense: CAAACUCGCUCAAUUCUCCGUAUGACUAAUUGUUCUUAUACUUAUCCUGGCGCUUCAAAACCGUCUUUGCACAAUGUGUCUUGUCAACUCUCCCUUUCAUCUCGAACUGCAAUCAUAGGUGGUAAUGGUGCAGGAAAAUCAACGUUAAUAAAACUACUUACUGGCGAGACGGUCCCUACUUCUGGGCGAGUCGAAAAACACCCUAAUUUGCGAAUUGGAUAUAUAAAACAACAUGCACUUGAACAUGUUGAAAUGCAUCUCGAGAAAACCCCAAACCAAUAUCUUCAAUGGCGCUAUGCCAAUGGUGAUGAUCGUGAGGUACAUAUGAAACAGACUCGUAUUUUAUCGGAUGCUGAUAAAGCUCAAAUGGAAAAAUGGAUUGAUAUCGAUGGGAAG
antisense: CUUCCCAUCGAUAUCAAUCCAUUUUUCCAUUUGAGCUUUAUCAGCAUCCGAUAAAAUACGAGUCUGUUUCAUAUGUACCUCACGAUCAUCACCAUUGGCAUAGCGCCAUUGAAGAUAUUGGUUUGGGGUUUUCUCGAGAUGCAUUUCAACAUGUUCAAGUGCAUGUUGUUUUAUAUAUCCAAUUCGCAAAUUAGGGUGUUUUUCGACUCGCCCAGAAGUAGGGACCGUCUCGCCAGUAAGUAGUUUUAUUAACGUUGAUUUUCCUGCACCAUUACCACCUAUGAUUGCAGUUCGAGAUGAAAGGGAGAGUUGACAAGACACAUUGUGCAAAGACGGUUUUGAAGCGCCAGGAUAAGUAUAAGAACAAUUAGUCAUACGGAGAAUUGAGCGAGUUUG
As for B2, the “% decrease =/− SE TP1” value is given as 12 ± 7% and the “% decrease =/− SE TP2” value was 14 ± 7%.

B3: GS3335 (nucleic acid)
sense: UUGAGUACAGAGUAGUAGUAAUCUAUUUACAUGAAUUACAAGCUUGUACGGAUGAAUGUUUGUCAUAAGCCUACUCAUCUUUCAUGGCGAAUUUCCCAGGCGGCUAACUACUCUAAUUUGUGAGAGGCAUGAAAGUAAUGAUAGAUUUUCUCUAUGUAUAAUAAAUAGUACUCGUAUUUUAAUCAUUCAAACCCUAGUGAUAUCUUUUGUACUCUUCUCUUAUCAAAUUACAUCAAGUUCAUUCCGUCAUUUCUCGUUAUAUAUGACAUAUAAAGCAUUCCAUUCGCAUGAUAGAAAAUAAGUAAUAUGUAUAAUGACUCAAAGCCUUCACCCCAUAGCCAAAAAGUUGGGUUUAUAGUGAAACUUGUGACGUAGAGGGGAUUAAUAUCGCAUUUUCU
antisense: AGAAAAUGCGAUAUUAAUCCCCUCUACGUCACAAGUUUCACUAUAAACCCAACUUUUUGGCUAUGGGGUGAAGGCUUUGAGUCAUUAUACAUAUUACUUAUUUUCUAUCAUGCGAAUGGAAUGCUUUAUAUGUCAUAUAUAACGAGAAAUGACGGAAUGAACUUGAUGUAAUUUGAUAAGAGAAGAGUACAAAAGAUAUCACUAGGGUUUGAAUGAUUAAAAUACGAGUACUAUUUAUUAUACAUAGAGAAAAUCUAUCAUUACUUUCAUGCCUCUCACAAAUUAGAGUAGUUAGCCGCCUGGGAAAUUCGCCAUGAAAGAUGAGUAGGCUUAUGACAAACAUUCAUCCGUACAAGCUUGUAAUUCAUGUAAAUAGAUUACUACUACUCUGUACUCAA
In the case of B3, the “% decrease =/− SE TP1” value is on record as 12 ± 6%.

B4: GS3333 (nucleic acid)
sense: AUAAAAGACUAAUAUGAUCUAAUUUAAAUCGAACUGAUUGAAAAACAUUUGAUUUGCAAUGAAAAUUAAUAUAUAAUCAAAUAAAAUCAAAUAUUUCUCACUCUGGUGCCGGCCCGUUGUGGUAGGAAGUGACCCAACUCUUAAAUCAGGUCAGCAACAUUCAUAGGCAUCUCUUCAAUUUGAGUGCUAUAAAACUGCUCAAUUUCACGCAUCAUCCGAACAUCAUCAGCUGUUACAAAGUUGAUCGCAACACCUUUUCGUCCAAAUCGACCACCUCGACCAAUUCUGUGAAUAUAAUUCUCACGAUUAGCAGGCAAGUCGUAAUUAAUAACUAAUGAAACUUGUUGUACAUCAAUACCACGAGCAAGAAGAUCAGUGGCAAUUAAAACACGGGAUGA
antisense: UCAUCCCGUGUUUUAAUUGCCACUGAUCUUCUUGCUCGUGGUAUUGAUGUACAACAAGUUUCAUUAGUUAUUAAUUACGACUUGCCUGCUAAUCGUGAGAAUUAUAUUCACAGAAUUGGUCGAGGUGGUCGAUUUGGACGAAAAGGUGUUGCGAUCAACUUUGUAACAGCUGAUGAUGUUCGGAUGAUGCGUGAAAUUGAGCAGUUUUAUAGCACUCAAAUUGAAGAGAUGCCUAUGAAUGUUGCUGACCUGAUUUAAGAGUUGGGUCACUUCCUACCACAACGGGCCGGCACCAGAGUGAGAAAUAUUUGAUUUUAUUUGAUUAUAUAUUAAUUUUCAUUGCAAAUCAAAUGUUUUUCAAUCAGUUCGAUUUAAAUUAGAUCAUAUUAGUCUUUUAU
With B4, the “% decrease =/− SE TP1” value is listed as 5 ± 6%.

B5: GS3323 (nucleic acid)
sense: AGGCGUGGACUGUAGCCUCAAUAGCAUACACUGAAUCGAAUGAGUUGUCAGGAAAUGACAUUUGCAUAAAGUCACCCUUAACAAAGCUUAAUUGGUUUGAUAAGCCUUCUUUCUGUGCAUAUCUCGUGGCCCGCUCUAUUUGGUAAUCAUUGUUGUUCAAGCCAGUAAUAUGAGCGCCAGUAAACUUGGCGAUUUCUCUUGCCGGACCACCAACACCACAUCCGACAUCAAGUACUUUGUCUGCCUCAUUAAUGCCUAUCUUAGCGGCAAGAUAAUGUUCAUGUCGCGCAAUCGCUUGGUAAAAUGGUUCACCGUAAGCAAAUCUACAGAAGUGAAAAGAUUGUCCCCAGCCGUAUUCGUAAAGAUCGGUGCCGAGAUUAUAGUACUGUCUUGUCAAA
antisense: UUUGACAAGACAGUACUAUAAUCUCGGCACCGAUCUUUACGAAUACGGCUGGGGACAAUCUUUUCACUUCUGUAGAUUUGCUUACGGUGAACCAUUUUACCAAGCGAUUGCGCGACAUGAACAUUAUCUUGCCGCUAAGAUAGGCAUUAAUGAGGCAGACAAAGUACUUGAUGUCGGAUGUGGUGUUGGUGGUCCGGCAAGAGAAAUCGCCAAGUUUACUGGCGCUCAUAUUACUGGCUUGAACAACAAUGAUUACCAAAUAGAGCGGGCCACGAGAUAUGCACAGAAAGAAGGCUUAUCAAACCAAUUAAGCUUUGUUAAGGGUGACUUUAUGCAAAUGUCAUUUCCUGACAACUCAUUCGAUUCAGUGUAUGCUAUUGAGGCUACAGUCCACGCCU
As for B5, the “% decrease =/− SE TP1” value was determined as 26 ± 7% and the “% decrease =/− SE TP2” value turned out to be 19 ± 7%.

B6: GS3320 (nucleic acid)
sense: UUAUCAUGCUGCCAUGGUUCAUAAGAAAAAAAUUUACUAAGAUUAGUAGGGAUGCAUAGACCUAAUGACACGCCCAUAAAAGUUGUAUGGCUAUCCCAACCAUGUUCAGAAAGUAUCUCGAGACCAUGAAUGCUUCUAGAAAUAAGGCCAAGUACGAAAAAUGCGGUUCCUCUCAUGCUCAUUAUUUCAUGCGAUUCUGCAAUUUUAAUUAUGUUCUGCACGACAUCUGAUUUUUCAAGAAAAGGAGCACCCAAUUCCAUAGAUCCAACGUUACCUACAGCCCAUAGGCAUCCUUUAACCUUAAGAAUAAUCUCUAAAUCAUCAUAAUGCAUUCCAUAUUCACGAAUGGUUGAGGCAAAUUCAUCAAAAUGACCUUUAUCAUGCAAGAGCUU
antisense: AAGCUCUUGCAUGAUAAAGGUCAUUUUGAUGAAUUUGCCUCAACCAUUCGUGAAUAUGGAAUGCAUUAUGAUGAUUUAGAGAUUAUUCUUAAGGUUAAAGGAUGCCUAUGGGCUGUAGGUAACGUUGGAUCUAUGGAAUUGGGUGCUCCUUUUCUUGAAAAAUCAGAUGUCGUGCAGAACAUAAUUAAAAUUGCAGAAUCGCAUGAAAUAAUGAGCAUGAGAGGAACCGCAUUUUUCGUACUUGGCCUUAUUUCUAGAAGCAUUCAUGGUCUCGAGAUACUUUCUGAACAUGGUUGGGAUAGCCAUACAACUUUUAUGGGCGUGUCAUUAGGUCUAUGCAUCCCUACUAAUCUUAGUAAAUUUUUUUCUUAUGAACCAUGGCAGCAUGAUAA
In the case of B6, the “% decrease =/− SE TP1” value came to 20 ± 8% and the “% decrease =/− SE TP2” value is 5 ± 8%.

B7: GS3319 (nucleic acid)
sense: GUGUUGAGACCUAAGAGCCUAUGAGUGAGUCACAUUACAACAGAAAGCCUCAAGUCUAAAGUCAUAACCUAUUAAAAUUCGAAAGCACAAAAACAUCCAUUAGGAACUGACUAAGUACAAGAGCUACUCCAUAAAAAUCAGUCGCAAUACAUGUUUUUGCAAAGCAGAUCAACCUGGUUAAGACGAGAAAUAACUUAGUAUUCAACGUAGCUAAAUCUCCAGGGUGUUAGUGUAGUAUAUUGACGUUUCCGAAAUAAUUAAAACCAGCAUCUUAGUUUGGUGUUAUUUGAUAUAUAUGAUAAGAUUCGUUUAGGAUUUAUUGGAAUUUAUUUGGCUGGUAUCUAAUGUAGAUUUGAUUGAUACCGUAUUAUCAAAUCAUUUUAU
antisense: AUAAAAUGAUUUGAUAAUACGGUAUCAAUCAAAUCUACAUUAGAUACCAGCCAAAUAAAUUCCAAUAAAUCCUAAACGAAUCUUAUCAUAUAUAUCAAAUAACACCAAACUAAGAUGCUGGUUUUAAUUAUUUCGGAAACGUCAAUAUACUACACUAACACCCUGGAGAUUUAGCUACGUUGAAUACUAAGUUAUUUCUCGUCUUAACCAGGUUGAUCUGCUUUGCAAAAACAUGUAUUGCGACUGAUUUUUAUGGAGUAGCUCUUGUACUUAGUCAGUUCCUAAUGGAUGUUUUUGUGCUUUCGAAUUUUAAUAGGUUAUGACUUUAGACUUGAGGCUUUCUGUUGUAAUGUGACUCACUCAUAGGCUCUUAGGUCUCAACAC
B7: the “% decrease =/− SE TP1” value is given as 23 ± 8% and the “% decrease =/− SE TP2” value came to 25 ± 7%.

B8: GS1796: dsRNA trigger SEQ ID NO 211; gene target Putative aldehyde dehydrogenase-like protein C922.07c (nucleic acid)
DNA: TACCCATCCCTGGCTTAAGTATTGATTTATACATTCTAAAAGAGAGTTCGACGCATATTATGATCTACATACGGAAGTTTGGTAGGATGACGAAAACTCCTAACTTTTAAATTGAAAATTCACCAATCTGACAACATATCTATCTTATTATTGTTGCCCTAATCACTGCCTTTAATGAAGGAATAAAAAATTAAAAGATGCCCGTCACTGACTAACGCTTTTTTTTTAATTAGCCAAATTATCAGTTAACTGCAAACCAGCTACAGCGAGACGGTTTAAGCTCCCATATTTACAAAAACTGACTTGATTTGAGTGTAACCAGCTAGACCAGCTTCTCCTAGCTCCCGTCCAATTCCACTCTGTTTTACACCACCAAATGGGACCTTAAAACTTGAATCATTACTTGAATTAATCCATACCATGCCTGATTCAATTTTTCGCGCTACCCGATGAGCCCTCGTAATATCCTTGGTAAATACTGCACTACCAAGGCCATAGGTAGTATCATTTGCTATCTTTAGGGCTTCTTCTTCTGTTTTAAAGCTATTTATGACAACAAAAGGGCCGAAGACTTCTTCACGAAATATTTTCATAGATG
Regarding B8, the “% decrease =/− SE TP2” value was determined as 1 ± 8%.
